In publication PMC8487046 (2021):

Biological target: acetylated BSA (AcBSA) (bovine (from the name BSA), UniProt P02769 25-607, acetylated (lysyl acetylation); extent not stated)
Experiment: SPR

acetylated BSA (AcBSA), sequence (P02769 25-607): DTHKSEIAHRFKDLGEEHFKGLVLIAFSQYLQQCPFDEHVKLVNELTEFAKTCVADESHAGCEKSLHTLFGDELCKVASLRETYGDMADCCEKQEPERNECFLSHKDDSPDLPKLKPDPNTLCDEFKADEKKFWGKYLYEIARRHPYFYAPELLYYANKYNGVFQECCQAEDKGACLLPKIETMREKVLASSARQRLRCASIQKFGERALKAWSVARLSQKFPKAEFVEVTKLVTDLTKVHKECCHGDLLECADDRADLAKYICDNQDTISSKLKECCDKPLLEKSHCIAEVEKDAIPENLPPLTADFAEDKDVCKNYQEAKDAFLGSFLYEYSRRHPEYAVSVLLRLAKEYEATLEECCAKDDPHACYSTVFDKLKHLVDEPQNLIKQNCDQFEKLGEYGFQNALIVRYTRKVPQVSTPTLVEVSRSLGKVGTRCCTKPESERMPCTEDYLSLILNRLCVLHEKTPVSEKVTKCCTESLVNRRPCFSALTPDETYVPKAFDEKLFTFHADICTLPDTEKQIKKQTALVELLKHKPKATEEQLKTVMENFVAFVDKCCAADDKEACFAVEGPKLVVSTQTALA

Kd: 917 nM
B1: SR‐F1(20‐421), SR‐F1 ectodomain (domain or fragment)
chain: SELDPKGQHVCVASSPSAELQCCAGWRQKDQECTIPICEGPDACQKDEVCVKPGLCRCKPGFFGAHCSSRCPGQYWGPDCRESCPCHPHGQCEPATGACQCQADRWGARCEFPCACGPHGRCDPATGVCHCEPGWWSSTCRRPCQCNTAAARCEQATGACVCKPGWWGRRCSFRCNCHGSPCEQDSGRCACRPGWWGPECQQQCECVRGRCSAASGECTCPPGFRGARCELPCPAGSHGVQCAHSCGRCKHNEPCSPDTGSCESCEPGWNGTQCQQPCLPGTFGESCEQQCPHCRHGEACEPDTGHCQRCDPGWLGPRCEDPCPTGTFGEDCGSTCPTCVQGSCDTVTGDCVCSAGYWGPSCNASCPAGFHGNNCSVPCECPEGLCHPVSGSCQPGSGSRDT
